# B1: GST-ankyrin-B membrane-binding domain (domain or fragment)
# chain: KSDSNASFLRAARAGNLDKVVEYLKGGIDINTCNQNGLNALHLAAKEGHVGLVQELLGRGSSVDSATKKGNTALHIASLAGQAEVVKVLVKEGANINAQSQNGFTPLYMAAQENHIDVVKYLLENGANQSTATEDGFTPLAVALQQGHNQAVAILLENDTKGKVRLPALHIAARKDDTKSAALLLQNDHNADVQSKMMVNRTTESGFTPLHIAAHYGNVNVATLLLNRGAAVDFTARNGITPLHVASKRGNTNMVKLLLDRGGQIDAKTRDGLTPLHCAARSGHDQVVELLLERGAPLLARTKNGLSPLHMAAQGDHVECVKHLLQHKAPVDDVTLDYLTALHVAAHCGHYRVTKLLLDKRANPNARALNGFTPLHIACKKNRIKVMELLVKYGASIQAITESGLTPIHVAAFMGHLNIVLLLLQNGASPDVTNIRGETALHMAARAGQVEVVRCLLRNGALVDARAREEQTPLHIASRLGKTEIVQLLLQHMAHPDAATTNGYTPLHISAREGQVDVASVLLEAGAAHSLATKKGFTPLHVAAKYGSLDVAKLLLQRRAAADSAGKNGLTPLHVAAHYDNQKVALLLLEKGASPHATAKNGYTPLHIAAKKNQMQIASTLLNYGAETNIVTKQGVTPLHLASQEGHTDMVTLLLDKGANIHMSTKSGLTSLHLAAQEDKVNVADILTKHGADQDAHTKLGYTPLIVACHYGNVKMVNFLLKQGANVNAKTKNGYTPLHQAAQQGHTHIINVLLQHGAKPNATTANGNTALAIAKRLGYISVVDTLKVVTEEVTTTTTTITEKHKLNVPETMTEVLDVSDEEGDDTMTGDGGEYLRPEDLKELGDD
# Tests used:
# [1] = molecular target: 220-kDa ankyrin-B (endogenous, mouse) (mouse (endogenous in mouse heart and brain)); assay: co-IP; detergent-soluble lysates of ankyrin-B+/- mouse heart, doubled amount of input lysate, compared with wild-type heart
# [2] = molecular target: InsP3R purified from bovine brain cerebellum (bovine, UniProt Q9TU34 1-2709, ^125I-labeled in the saturation binding; biotinylated with NHS-LC-biotin in the reconstitution); assay: radioligand binding; saturation binding: increasing concentrations of ^125I-labeled protein with glutathione Sepharose-immobilized GST-ankyrin-B membrane-binding domain, 2 h at 25 °C; binding to GST beads subtracted; Scatchard analysis; conditions: both partners purified
Molecule,loss of co-immunoprecipitation in ankyrin-B+/- heart against wild-type heart [1] [%],Kd [2] [nM]
"Na/K ATPase (endogenous, mouse; isoform not told) (from UniProt Q8VDN2 1-1023) (natural protein)",> 60,–
"Na/Ca exchanger 1 (endogenous, mouse) (from UniProt P70414 33-970) (natural protein)",> 60,–
"inositol 1,4,5-trisphosphate receptor (endogenous, mouse) (from UniProt P11881 1-2749)",> 60,–
B1,–,3
